# In patent US20180346602A1:
# Key:
# [1] = biological target: anti-VEGF/ANG2 antibody (wild-type IgG1 subclass) (human) [IgG part: P01857]; test: sandwich ELISA assay B; capture on SA plate; tracer M1.7.10-Dig; analyte 50 ng/mL
# [2] = biological target: anti-VEGF/ANG2 antibody (wild-type IgG1 subclass) (human) [IgG part: P01857]; test: sandwich ELISA assay B; capture on SA plate; tracer M1.7.10-Dig; analyte 6 ng/mL
# [3] = biological target: anti-VEGF/ANG2 antibody (wild-type IgG1 subclass) (human) [IgG part: P01857]; test: sandwich ELISA assay C; capture on SA plate; tracer FcγRI-Dig; analyte 6 ng/mL
# [4] = biological target: anti-VEGF/ANG2 antibody (wild-type IgG1 subclass) (human) [IgG part: P01857]; test: sandwich ELISA assay B; capture on SA plate; tracer M1.7.10-Dig; analyte 2 ng/mL
# [5] = biological target: anti-VEGF/ANG2 antibody (wild-type IgG1 subclass) (human) [IgG part: P01857]; test: sandwich ELISA assay C; capture on SA plate; tracer FcγRI-Dig; analyte 0 ng/mL (blank)
# [6] = biological target: anti-VEGF/ANG2 antibody (IgG1 subclass with mutations P329G/L234A/L235A/I253A/H310A/H435A) (human) [IgG part: P01857]; test: sandwich ELISA in serum; M1.3.17-Bi capture on SA plate; tracer anti-human kappa M1.7.10-Dig; analyte 0.3125 ng/mL
# [7] = biological target: anti-Dig antibody (IgG1 subclass with mutations P329G/L234A/L235A) [IgG part: P01857]; test: sandwich ELISA assay D; tracer M1.19.31-Dig; analyte conc. not printed (row 6 of 8)
# [8] = biological target: anti-VEGF/ANG2 antibody (IgG1 subclass with mutations P329G/L234A/L235A/I253A/H310A/H435A) [IgG part: P01857]; test: sandwich ELISA in serum; capture M1.3.17, tracer M1.7.24; anti-VEGF/ANG2 antibody 39.0625 ng/mL
# [9] = biological target: anti-VEGF/ANG2 antibody (IgG1 subclass with mutations P329G/L234A/L235A/I253A/H310A/H435A) [IgG part: P01857]; test: sandwich ELISA in serum; capture M1.3.17, tracer M1.7.24; anti-VEGF/ANG2 antibody 1250 ng/mL
# [10] = biological target: anti-VEGF/ANG2 antibody (IgG1 subclass with mutations P329G/L234A/L235A/I253A/H310A/H435A) (human) [IgG part: P01857]; test: sandwich ELISA in serum; M1.3.17-Bi capture on SA plate; tracer anti-human kappa M1.7.10-Dig; analyte 5 ng/mL
# [11] = biological target: anti-Dig antibody (IgG1 subclass with mutations P329G/L234A/L235A) [IgG part: P01857]; test: sandwich ELISA assay D; tracer M1.7.10-Dig; analyte conc. not printed (row 5 of 8)
# [12] = biological target: anti-VEGF/ANG2 antibody (IgG1 subclass with mutations P329G/L234A/L235A/I253A/H310A/H435A) [IgG part: P01857]; test: sandwich ELISA assay E; tracer M1.7.10-Dig; analyte 1) at 100 ng/mL
# [13] = biological target: anti-VEGF/ANG2 antibody (IgG1 subclass with mutations P329G/L234A/L235A) [IgG part: P01857]; test: sandwich ELISA assay E; tracer M1.7.10-Dig; analyte 2) at 25 ng/mL
# [14] = biological target: anti-Dig antibody (IgG1 subclass with mutations P329G/L234A/L235A) [IgG part: P01857]; test: sandwich ELISA assay D; tracer M1.7.10-Dig; analyte conc. not printed (row 1 of 8)
# [15] = biological target: anti-VEGF/ANG2 antibody (IgG1 subclass with mutations P329G/L234A/L235A/I253A/H310A/H435A) (human) [IgG part: P01857]; test: sandwich ELISA in serum; M1.3.17-Bi capture on SA plate; tracer anti-human kappa M1.7.10-Dig; analyte 10 ng/mL
# [16] = biological target: anti-VEGF/ANG2 antibody (IgG1 subclass with mutations P329G/L234A/L235A/I253A/H310A/H435A) [IgG part: P01857]; test: sandwich ELISA in serum; capture M1.3.17, tracer M1.7.24; anti-VEGF/ANG2 antibody 2500 ng/mL
# [17] = biological target: anti-VEGF/ANG2 antibody (IgG1 subclass with mutations P329G/L234A/L235A/I253A/H310A/H435A) [IgG part: P01857]; test: sandwich ELISA in serum; capture M1.7.10-Bi, tracer M1.7.24-Dig; anti-VEGF/ANG2 antibody 10 ng/mL
# [18] = biological target: anti-VEGF/ANG2 antibody (IgG1 subclass with mutations P329G/L234A/L235A/I253A/H310A/H435A) [IgG part: P01857]; test: sandwich ELISA in serum; capture M1.7.10-Bi, tracer M1.7.24-Dig; anti-VEGF/ANG2 antibody 0.3125 ng/mL
# [19] = biological target: cytokine (IL-2) antibody conjugate with the mutations P329G, L234A, L235A, I253A, H310A, and H435A; test: sandwich ELISA in serum; capture anti-IL2 antibody, tracer M1.7.24; conjugate 0 ng/mL (blank)
# [20] = biological target: anti-VEGF/ANG2 antibody (IgG1 subclass with mutations P329G/L234A/L235A/I253A/H310A/H435A) [IgG part: P01857]; test: sandwich ELISA in serum; capture M1.7.10-Bi, tracer M1.7.24-Dig; anti-VEGF/ANG2 antibody 5 ng/mL
# [21] = biological target: anti-VEGF/ANG2 antibody (IgG1 subclass with mutations P329G/L234A/L235A/I253A/H310A/H435A) [IgG part: P01857]; test: sandwich ELISA in serum; capture M1.7.10-Bi, tracer M1.7.24-Dig; anti-VEGF/ANG2 antibody 1.25 ng/mL
# [22] = biological target: cytokine (IL-2) antibody conjugate with the mutations P329G, L234A, L235A, I253A, H310A, and H435A; test: sandwich ELISA in serum; capture anti-IL2 antibody, tracer M1.7.24; conjugate 156.25 ng/mL
Binder,signal [OD405 nm] [1],signal [OD405 nm] [2],signal [OD405 nm] [3],signal [OD405 nm] [4],signal [OD405 nm] [5],signal 10% cynomolgus serum [OD405 nm] [7],signal 10% human serum [OD405 nm] [7],signal buffer [OD405 nm] [7],signal 10% cynomolgus serum [OD405 nm] [11],signal 10% human serum [OD405 nm] [11],signal buffer [OD405 nm] [11],signal [OD405 nm] [12],signal [OD405 nm] [13],signal 10% cynomolgus serum [OD405 nm] [14],signal 10% human serum [OD405 nm] [14],signal buffer [OD405 nm] [14],other results
"anti-AAA variant Fc-region antibody M1.6.22 (antibody, V domains shown) VH: EVQLVESGGDLVKPGGSLKLSCAASGFTFSSYGMSWVRQTPDKRLEWVATISSGGSYIYYPDSVKGRFTISRDNAKNTLYLQMSSLKSEDTAMYYCARLGMITTGYAMDYWGQGTSVTVSS VL: DVLMTQTPLSLPVSLGDQASISCRSSQTIVHSTGHTYLEWFLQKPGQSPKLLIYKVSNRFSGVPDRFSGSGSGTDFTLKISRVEAEDLGVYYCFQGSHVPYTFGGGTKLEIK",0.049 OD405 nm,0.039 OD405 nm,0.064 OD405 nm,0.036 OD405 nm,0.069 OD405 nm,,,,,,,,,,,,
"anti-variant (human) Fc-region antibody M1.3.17 (antibody, V domains shown) VH: EVKLLESGGGLVQPGGSLKLSCAASGIDFRRYWMNWVRQAPGKGLEWIGEIDPDSSTINYTPSLKDKFIISRDNAKNTMYLQMRKVRSEDTALYYCARPYDYGAWFAYWGQGTLVTVSA VL: QAVVTQESALTTSPGETVTLTCRSTTGAVTTSNYANWVQEKPDHLFTGLIGGTNKRAPGVPARFSGSLIGDKAALTITGAQTEDEAIYFCALWYSDHWVFGGGTKLTVL",,,,,,0.082 OD405 nm,1.67 OD405 nm,0.033 OD405 nm,0.096 OD405 nm,2.49 OD405 nm,0.031 OD405 nm,2.29 OD405 nm,1.48 OD405 nm,2.12 OD405 nm,2.66 OD405 nm,0.053 OD405 nm,signal [OD405 nm] [6]: 0.181 OD405 nm; signal [OD405 nm] [8]: 0.233 OD405 nm; signal [OD405 nm] [9]: 1.88 OD405 nm; signal [OD405 nm] [10]: 1.6 OD405 nm; signal [OD405 nm] [15]: 2.23 OD405 nm; signal [OD405 nm] [16]: 2.77 OD405 nm
"anti-variant (human) Fc-region antibody M1.7.24 (antibody, V domains shown) VH: EVKLLESGGGLVQPGGSLKLSCAASGFDFSRYWMNWVRQAPGKGLEWIGEITPDSSTINYTPSLKDKFIISRDNAKNTLYLQMIKVRSEDTALYYCVRPYDYGAWFASWGQGTLVTVSA VL: QAVVTQESALTTSPGETVTLTCRSSTGAVTTSNYANWVQEKPDHLFTGLIGGTNKRAPGVPARFSGSLIGDKAALTITGAQTEDEAIYFCALWYSNHWVFGGGTKLTVL",0.04 OD405 nm,0.038 OD405 nm,0.057 OD405 nm,0.034 OD405 nm,0.073 OD405 nm,0.049 OD405 nm,1.36 OD405 nm,0.033 OD405 nm,0.094 OD405 nm,2.41 OD405 nm,0.031 OD405 nm,2.31 OD405 nm,1.39 OD405 nm,2.37 OD405 nm,2.74 OD405 nm,0.062 OD405 nm,signal [OD405 nm] [17]: 2.76 OD405 nm; signal [OD405 nm] [18]: 0.261 OD405 nm; signal [OD405 nm] [19]: 0.0475 OD405 nm; signal [OD405 nm] [20]: 2.17 OD405 nm; signal [OD405 nm] [21]: 0.847 OD405 nm; signal [OD405 nm] [22]: 0.253 OD405 nm
